Patent US20230265179A1 (TWIST BIOSCIENCE, published 2023)

T1: IL1RL1 over-expressed on Expi293 cells (UniProt Q01638 19-556, limits assumed)
T1 construct: whole, on cells; Target of the flow cytometry MFI ratio (over-expressing cells over parent cells); also called cytokine over-expressing Expi293 cells
T1 sequence (looked up): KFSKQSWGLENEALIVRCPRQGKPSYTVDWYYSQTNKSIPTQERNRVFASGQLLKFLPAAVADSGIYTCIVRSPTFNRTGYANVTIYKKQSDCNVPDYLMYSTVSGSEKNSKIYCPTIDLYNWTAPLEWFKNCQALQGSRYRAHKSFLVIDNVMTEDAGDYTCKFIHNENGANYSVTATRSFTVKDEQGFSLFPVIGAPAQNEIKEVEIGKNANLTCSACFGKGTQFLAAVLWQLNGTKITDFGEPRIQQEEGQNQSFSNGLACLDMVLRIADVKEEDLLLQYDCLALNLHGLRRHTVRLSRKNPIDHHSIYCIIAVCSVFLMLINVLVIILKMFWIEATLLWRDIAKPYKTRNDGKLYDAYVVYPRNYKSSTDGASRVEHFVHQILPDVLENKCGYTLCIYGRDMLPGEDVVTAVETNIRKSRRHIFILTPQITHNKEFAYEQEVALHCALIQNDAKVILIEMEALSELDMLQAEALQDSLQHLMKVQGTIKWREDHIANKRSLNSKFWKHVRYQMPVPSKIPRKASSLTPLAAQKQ

T2: IL1RL1 (UniProt Q01638 19-328, limits assumed)
T2 construct: SPR analyte
T2 sequence (looked up): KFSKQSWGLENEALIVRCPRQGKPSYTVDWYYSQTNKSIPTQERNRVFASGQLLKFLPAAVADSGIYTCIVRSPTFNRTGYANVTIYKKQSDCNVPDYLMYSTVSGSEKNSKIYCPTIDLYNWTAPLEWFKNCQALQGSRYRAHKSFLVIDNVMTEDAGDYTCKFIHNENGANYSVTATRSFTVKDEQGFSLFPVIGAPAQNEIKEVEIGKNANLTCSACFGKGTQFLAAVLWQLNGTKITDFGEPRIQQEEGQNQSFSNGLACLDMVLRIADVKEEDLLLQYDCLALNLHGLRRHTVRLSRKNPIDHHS


Tests used:
[1] = molecular target: T1, IL1RL1 over-expressed on Expi293 cells; assay: flow cytometry, 100 nM antibody, over-expressing Expi293 / parent cells
Protocol: All incubations and washes were in buffer containing PBS+1% BSA. MFI Ratio is defined by the mean fluorescence intensity (MFI) of the cytokine over-expressing Expi293 cell over the Expi293 parent cell. […] EC50 was calculated in GraphPad Prism.

[2] = molecular target: T2, IL1RL1; assay: SPR (Carterra LSA), antibody amine-coupled, 1:1 model;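 further: HC30M sensor chip at 25 °C in HBS-TE, analyte at rising concentrations in buffer containing 0.5 mg/mL BSA, 5 min association then 15 min dissociation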

Binder	100 nM FACS (MFI Ratio) [1] [MFI ratio]	Kd [2] [nM]	koff [2] [s⁻¹]	kon [2] [M⁻¹ s⁻¹]
IL1RL1-45 (Fc fusion, not shown: a dimerising Fc or GST, VHH-Fc on IgG2 Fc) VHH: EVQLVESGGGLVQPGGSLRLSCAASGRTLSSYTMGWFRQAPGKEREFVAGIWSGGYTHYADSVKGRFTISADNSKNTAYLQMNSLKPEDTAVYYCAAVSSNSETFDWGQGTLVTVSS	704	1.19	0.000326	275000
IL1RL1-83 (Fc fusion, not shown: a dimerising Fc or GST, VHH-Fc on IgG2 Fc) VHH: EVQLVESGGGLVQPGGSLRLSCAASGRSISDYTMGWFRQAPGKEREFVAGIWSGGYTHYADSVKGRFTISADNSKNTAYLQMNSLKPEDTAVYYCAAVSSNSETFDWGQGTLVTVSS	628	1.2	0.00016	134000
IL1RL1-88 (Fc fusion, not shown: a dimerising Fc or GST, VHH-Fc on IgG2 Fc) VHH: EVQLVESGGGLVQPGGSLRLSCAASGRTSHGYGGYGMGWFRQAPGKEREEVAAISSSGSSTVYADSVKGRFTISADNSKNTAYLQMNSLKPEDTAVYYCAAIAYEEGVYRWDWGQGTLVTVSS	339	0.529	0.000104	197000
IL1RL1-78 (Fc fusion, not shown: a dimerising Fc or GST, VHH-Fc on IgG2 Fc) VHH: EVQLVESGGGLVQPGGSLRLSCAASGFTLDDYAMGWFRQAPGKEREEVAAISWIIGSTKYADSVKGRFTISADNSKNTAYLQMNSLKPEDTAVYYCAAIVYEEGVYRWDWGQGTLVTVSS	475	1.36	0.000278	204000
IL1RL1-39 (Fc fusion, not shown: a dimerising Fc or GST, VHH-Fc on IgG2 Fc) VHH: EVQLVESGGGLVQPGGSLRLSCAASGGTFSVYAMGWFRQAPGKEREAVASISTSGGSTYYADSVKGRFTISADNSKNTAYLQMNSLKPEDTAVYYCAIGGTLYDRRRFEWGQGTLVTVSS	267	0.688	5.5e-05	80000
IL1RL1-49 (Fc fusion, not shown: a dimerising Fc or GST, VHH-Fc on IgG2 Fc) VHH: EVQLVESGGGLVQPGGSLRLSCAASGRTVTMGWFRQAPGKEREFVAGINWESGSTDYADSVKGRFTISADNSKNTAYLQMNSLKPEDTAVYYCAALALGTDQSSTFDWGQGTLVTVSS	248	2.42	0.000673	277000
IL1RL1-57 (Fc fusion, not shown: a dimerising Fc or GST, VHH-Fc on IgG2 Fc) VHH: EVQLVESGGGLVQPGGSLRLSCAASGDIGSINSMGWFRQAPGKEREFLASVSWGFGSTYYADSVKGRFTISADNSKNTAYLQMNSLKPEDTAVYYCAVNRLLYYSSGYYQTSVDWGQGTLVTVSS	282	1.73	0.000364	211000

Next, values leading:

100 nM FACS (MFI Ratio) [1] [MFI ratio]	Kd [2] [nM]	koff [2] [s⁻¹]	kon [2] [M⁻¹ s⁻¹]	Binder
300	3.06	0.000553	181000	IL1RL1-46 (Fc fusion, not shown: a dimerising Fc or GST, VHH-Fc on IgG2 Fc) VHH: EVQLVESGGGLVQPGGSLRLSCAASGFTFSDIAMGWFRQAPGKEREFVAAINWSGGSTKYADSVKGRFTISADNSKNTAYLQMNSLKPEDTAVYYCAYSGIGTDWGQGTLVTVSS
448	≤ 0.016	≤ 1e-05	626000	IL1RL1-44 (Fc fusion, not shown: a dimerising Fc or GST, VHH-Fc on IgG2 Fc) VHH: EVQLVESGGGLVQPGGSLRLSCAASGDYYAMGWFRQAPGKEREWVSSIGIAGTPTFYADSVKGRFTISADNSKNTAYLQMNSLKPEDTAVYYCAANVGVTGSYEWGQGTLVTVSS
310	3.12	0.000618	198000	IL1RL1-26 (Fc fusion, not shown: a dimerising Fc or GST, VHH-Fc on IgG2 Fc) VHH: EVQLVESGGGLVQPGGSLRLSCAASGLTTVYTMGWFRQAPGKERESVASISWTGGTTYYADSVKGRFTISADNSKNTAYLQMNSLKPEDTAVYYCAAIAHEEGVYRWDWGQGTLVTVSS
